{
  "source": "patent US20130123201A1",
  "about": "“MODULATION OF CYTOKINE-INDUCED CHRONIC INFLAMMATORY RESPONSES” (UNIVERSITY OF MANITOBA, priority 2010, published 2013)",
  "target": "TNF-receptor-1 (TNF-R1) (human) (UniProt P19438)",
  "sequence (P19438 30-455)": "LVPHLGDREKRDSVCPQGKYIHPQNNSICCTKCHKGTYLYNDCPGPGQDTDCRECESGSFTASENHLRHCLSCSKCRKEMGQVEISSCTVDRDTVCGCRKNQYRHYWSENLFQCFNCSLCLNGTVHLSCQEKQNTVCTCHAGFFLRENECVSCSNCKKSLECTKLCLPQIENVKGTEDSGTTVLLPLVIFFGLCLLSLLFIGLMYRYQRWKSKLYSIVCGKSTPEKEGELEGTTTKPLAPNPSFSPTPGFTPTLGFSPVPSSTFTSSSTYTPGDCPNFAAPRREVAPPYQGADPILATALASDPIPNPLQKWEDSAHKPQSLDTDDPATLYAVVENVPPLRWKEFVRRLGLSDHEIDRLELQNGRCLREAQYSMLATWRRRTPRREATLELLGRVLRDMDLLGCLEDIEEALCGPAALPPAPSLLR",
  "experiment": "cell-based or functional assay",
  "data": [
    {"substance": "Recombinant human cytokine IL-32γ (from UniProt P24001 31-234) (ligand)", "values": [
      {"measurement": "Relative fold change in phosphorylation of the TNF-R1 S274 array peptide (kinome profiling, THP-1 cells, 20 ng/mL IL-32, 15 min)", "result": 4.7, "unit": "fold"}
    ]}
  ]
}
